The target in the assay is T1, C3a Receptor (Homo sapiens, UniProt Q16581).
T1 sequence (Q16581 1-482 F151C): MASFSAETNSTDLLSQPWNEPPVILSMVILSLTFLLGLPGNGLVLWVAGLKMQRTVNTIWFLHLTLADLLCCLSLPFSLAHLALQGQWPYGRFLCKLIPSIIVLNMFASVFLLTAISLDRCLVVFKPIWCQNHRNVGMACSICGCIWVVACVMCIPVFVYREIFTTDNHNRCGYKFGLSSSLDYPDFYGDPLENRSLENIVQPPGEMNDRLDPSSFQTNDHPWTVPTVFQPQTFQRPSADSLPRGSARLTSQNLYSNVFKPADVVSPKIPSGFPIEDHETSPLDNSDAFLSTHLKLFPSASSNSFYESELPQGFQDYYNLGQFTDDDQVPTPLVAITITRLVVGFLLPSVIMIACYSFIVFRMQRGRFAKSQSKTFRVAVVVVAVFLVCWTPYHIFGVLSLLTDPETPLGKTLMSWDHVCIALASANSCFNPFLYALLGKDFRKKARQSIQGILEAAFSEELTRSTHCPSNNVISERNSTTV
Briefly: Electrophysiological response (Ca2+ mediated chloride currents, two electrode voltage clamp) of Xenopus oocytes injected with C3a Receptor cRNA. Further details: cDNA encoding a complete orphan GPCR of 482 amino acids; expressed in transfected cells; host or cells: Xenopus laevis oocytes microinjected with cRNA, with or without U937 total RNA. It counts as cell-based. The note with it: for electrophysiological response of oocytes expressing C3a Receptor: oocytes co-injected with C3a Receptor cRNA (10 ng) and U937 RNA (25 ng), ligands 10 nM; for electrophysiological response of oocytes injected with C3a Receptor cRNA or U937 RNA alone: 10 nM ligand. The procedure:
(A) Electrophysiological response of Xenopus oocytes injected with cRNA for C3a Receptor (10 ng), total U937 RNA (25 ng), or a mixture of C3a Receptor (10 ng) and U937 RNA (25 ng) to 10 nM rC5a, 10 nM C3a analogue peptide, 10 nM platelet activating factor (PAF), 10 nM fMetLeuPhe. Inset, represents typical response of oocytes co-injected with C3a Receptor cRNA+U937 RNA to 10 nM C3a. (B) Electrophysiological response of oocytes injected with C5a-R cRNA (10 ng), U937 RNA (25 ng) or a mixture of C5a-R and U937 RNA, to 10 nM rC5a or 10 nM C3a analogue peptide. […] Calcium mobilization by Fura 2 loaded cells expressing C5a receptor (FIGS. 4A & 4C) or C3a Receptor (FIGS. 4B & 4D) in response to rC5a (10 nM, FIG. 4A or 100 nM, FIG. 4B) or C3a analogue peptide (1 uM, FIGS. 4C & 4D).
Capped cRNA transcripts were generated from linearized C3a Receptor and C5a-R plasmid DNA as previously described (Kumar, C. S., et al (1989) J. Biol. Chem. 264, 17939-17946) and suspended in sterile water at a concentration of 0.2 μg/μl. Ovarian lobes were surgically removed from adult female Xenopus laevis frogs and defolliculated Stage V oocytes were harvested by manual dissection (Smith, L. D., et al (1991) Methods in Cell Biology, 36, 45-54. Edited by B. K. Kay and H. B. Peng, Academic Press Inc., New York.). Oocytes were microinjected with C3a Receptor or C5a-R cRNA transcripts (10 ng/oocyte) with or without U937 total RNA (25 ng/oocyte) in a 50 nl volume using a Drummond microinjection apparatus and maintained in modified Barth's saline (Power, C. A., et al (1995) J. Biol. Chem., 270,19495-19500 ) at 18° C. Electrophysiological recordings from an average of 10 oocytes were made 48 h later at room temperature using the two electrode voltage clamp (Warner Instruments) technique. Membrane potentials were routinely clamped at -60 mV. Results represent average response determined in three separate experiments.
The chemotactic receptors for C5a and the fMLP-R have previously been functionally expressed in Xenopus laevis oocytes (Kroll, B., et al (1991) FEBS Lett. 291, 208-210; Murphy, P. M. & McDermott, D. (1991) J Biol. Chem. 266, 12560-12567; Murphy, P. M., Gallin, E. K., and Tiffany, H. L. (1990) J Immunol. 145, 2227-2234; Schultz, P., et al (1992) Cellular Signalling 4, 153-161) and, unlike all other GPCRs tested in this system, injection of cRNA for the cloned chemotactic receptors alone is insufficient to stimulate signal transduction in response to ligand binding (Kroll, B., et al (1991) FEBS Lett. 291, 208-210; Murphy, P. M. & McDermott, D. (1991) J Biol. Chem. 266, 12560-12567). Functional expression of both of these chemotactic receptors, as monitored by induction of Ca^2+ mediated chloride currents, requires the co-injection of a complimentary human factor which can be supplied by total RNA from myeloid or liver cells (Kroll, B., et al (1991) FEBS Lett. 291, 208-210; Murphy, P. M. & McDermott, D. (1991) J Biol. Chem. 266, 12560-12567). The co-factor is required for receptor-mediated signal transduction but not for expression of the C5a-R or fMLF-R on the surface of the oocytes (Murphy, P. M., et al (1990) J Immunol. 145, 2227-2234). […] Xenopus oocytes were used to functionally characterize C3a Receptor. […] Like the C5a-R and the fMLF-R, the response was dependent on the co-injection of a cofactor present in total HL-60 or U937 RNA. […] (FIG. 3B). Both the C5a-R as well as C3a Receptor elicited in oocytes a promiscuous response to the two anaphylatoxins.

The text below walks through data of patent publication US5942405A, “Therapeutic and screening methods using C3a receptor and C3a” (priority 1997, dated 1999).

As for “C3a: C3a was purchased from Advanced Research Technologies, San Diego; anaphylatoxin; radioiodinated for binding”, the “electrophysiological response of oocytes expressing C3a Receptor” value is on record as “respond”. For the same molecule, where the note is “listed as native ligand”, the “electrophysiological response of oocytes expressing C3a Receptor” value was “elicited similar responses”.
In the case of “WWGKKYRASKLGLAR [C3a analogue synthetic peptide, reference compound]”, the “electrophysiological response of oocytes injected with C3a Receptor cRNA or U937 RNA alone” value is “did not elicit any response” and the “electrophysiological response of oocytes expressing C3a Receptor” value was “respond”. The “electrophysiological response of oocytes expressing C3a Receptor” value (listed as C3a carboxy-terminal analog synthetic peptide) is “elicited an electrophysiological response”.

B1: rC5a: Human rC5a was expressed in E. coli and purified to homogeneity (protein, UniProt P01031 678-751, looked up)
C5a anaphylatoxin: TLQKKIEEIAAKYKHSVVKKCCYDGACVNNDETCEQRAARISLGPRCIKAFTECCVVASQLRANISHKDMQLGR
modifications: C5a anaphylatoxin recombinant, E. coli
notes: Human rC5a was expressed in E. coli and purified to homogeneity
In the case of B1, the “electrophysiological response of oocytes injected with C3a Receptor cRNA or U937 RNA alone” value is “did not elicit any response”. Further, for the setting “listed as C5a”, the “electrophysiological response of oocytes expressing C3a Receptor” value is listed as “respond”.
